Assay results from patent US11834499 (University of California, dated 2023).

T1: mouse CLDN18.2 (mouse, UniProt P56857 10-264, Expressed on HEK293T cells as a fusion to GFP. The GFP is left out of the letters.)
T1 construct: also called mouse CLDN18.2 fused to GFP; not shown: The GFP fused to mouse CLDN18.2, and any linker to it
T1 chain: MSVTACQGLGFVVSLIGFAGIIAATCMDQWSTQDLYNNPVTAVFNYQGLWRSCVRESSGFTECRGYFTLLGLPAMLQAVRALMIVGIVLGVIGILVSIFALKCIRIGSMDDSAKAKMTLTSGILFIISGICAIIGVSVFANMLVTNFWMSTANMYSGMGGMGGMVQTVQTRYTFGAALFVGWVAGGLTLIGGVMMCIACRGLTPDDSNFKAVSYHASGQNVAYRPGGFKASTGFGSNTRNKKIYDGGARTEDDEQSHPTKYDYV


How the values were obtained:
mouse CLDN18.2 = biological target: T1, mouse CLDN18.2; assay: FACS dose curve, AF647-labelled IgG on HEK293T mouse CLDN18.2 MP cells
[1] = biological target: T2, human Claudin-18.2 (CLDN18.2) (human); assay: flow cytometry; HUPT4 over M202 [Cont.]
T2 construct: On cells: fused to GFP in engineered HEK293T cells (clone C12), endogenous in HUPT4 and SNU601 cells; also called human CLDN18.2
Experimental: (§1) The samples were then measured by Intellicyt® iQue Advanced Flow Cytometry Platform.

[2] = biological target: T2, human Claudin-18.2 (CLDN18.2); assay: flow cytometry; HEK293T CLDN18.2 over HEK293T parental [Cont.]
Experimental: as §1

binding result (mouse CLDN18.2) | ratio native [1] | ratio OE [2] | Binder
no binding (tested: 0.32 nM to 1000 nM) |  |  | Ab 376 (antibody, V domains shown) VH: DVKLVESGGGLVKPGGSLKLSCAASGFTFSSYTMSWVRQTPEKRLYWVATISSGVSYTYYPDSVKGRFTISRDNAKNTLYLQMSSLKSEDTAMYYCTRLTKGNAMDYWGQGTSVTVSS VL: DIVMTQSPSSLTVTAGEKVTMSCKSSQSLLNSGNQKNYLTWYQQKPGQPPKLLIYWASTRESGVPDRFTGSGSGTGFTLTISSVQAEDLAVYYCQNDYSYPFTFGAGTKLELK
no binding (tested: 0.32 nM to 1000 nM) |  |  | Ab 384 (antibody, V domains shown) VH: QVQLQQSGAELARPGASVKLSCKASDYTFTSYVISWVKQRTGQGLEWIGEIYPRNGNTYYNEKFKGKATLTADKSSSTAYMELRSLTSEDSAVYFCARSYYGNSFAYWGQGTLVTVSA VL: DIVMTQSPSSLTVTAGEKVTMSCKSSQSLLNSGNQKNYLTWYQQRPGQPPKLLIYWASTRESGVPDRFTGSGSGTDFTLTISSVQAEDLAVYCCQNNYYYPFTFGGGTKLGIK
no binding (tested: 0.32 nM to 1000 nM) |  |  | Ab 400 (antibody, V domains shown) VH: QVQLKESGPGLVAPSQSLSITCTVSGFSLNSYGVSWVRQPPGKGLEWLGVIWGDGSTNYHSALKSRLNINKDKSKSQVFLKLNSLQTDDTATYYCARPTRGNAMDYWGQGTSVTVSS VL: DVVMTQSPSSLTVTAGEKVTMNCKSSQSLLNSGNQRSYLTWYQQKPGQPPKLLIYWASTRESGAPDRFTGSGSGADFTLTISSVQAEDLAIYYCQNNYNYPFTFGSGTKLEIK
 | 94.1 | 449 | 02-0358-7h antibody (antibody, V domains shown) VH: EVQLVESGGGLVQPGGSLRLSCAVSGFTFSSFGMHWVRQAPGKGLEWVAYISSGTTNIYYADSVKGRFTVSRDNAKNSLYLQMNSLRAEDTAVYYCVRSGYYGSSLDYWGQGTLVTVSS VL: DIVMTQSPDSLAVSLGERVTMNCKSSQSLFNSGNQRNYLTWYQQKPGQPPKLLIYWASTRESGVPDRFSGSGSGTDFTLTISSVQAEDVAVYYCQNVYIYPLTFGQGTKLEIK
 | 88.8 | 456 | 02-0358-11h antibody (antibody, V domains shown) VH: EVQLVESGGGLVQPGGSLRLSCAVSGFTFSSFGMHWVRQAPGKGLEWVAYISSGTTNIYYADSVKGRFTVSRDNAKNSLYLQMNSLRAEDTAVYYCVRSGYYGSSLDYWGQGTLVTVSS VL: DIVMTQSPDSLAVSLGERVTMNCKSSQSLFSSGNQRNYLTWYQQKPGQPPKLLIYWASTRESGVPDRFSGSGSGTDFTLTISSVQAEDVAVYYCQNVYIYPLTFGQGTKLEIK
 | 57.9 | 229 | 02-0358-8h antibody (antibody, V domains shown) VH: EVQLVESGGGLVQPGGSLRLSCAVSGFTFSSFGMHWVRQAPGKGLEWVAYISSGTTNIYYADSVKGRFTVSRDNAKNSLYLQMNSLRAEDTAVYYCVRSGYYGQSLDYWGQGTLVTVSS VL: DIVMTQSPDSLAVSLGERVTMNCKSSQSLFQSGNQRNYLTWYQQKPGQPPKLLIYWASTRESGVPDRFSGSGSGTDFTLTISSVQAEDVAVYYCQNVYIYPLTFGQGTKLEIK
 | 54.1 | 274 | 02-0358-10h antibody (antibody, V domains shown) VH: EVQLVESGGGLVQPGGSLRLSCAVSGFTFSSFGMHWVRQAPGKGLEWVAYISSGTTNIYYADSVKGRFTVSRDNAKNSLYLQMNSLRAEDTAVYYCVRSGYYGSSLDYWGQGTLVTVSS VL: DIVMTQSPDSLAVSLGERVTMNCKSSQSLFQSGNQRNYLTWYQQKPGQPPKLLIYWASTRESGVPDRFSGSGSGTDFTLTISSVQAEDVAVYYCQNVYIYPLTFGQGTKLEIK
 | 93.4 | 453 | 02-0358-9h antibody (antibody, V domains shown) VH: EVQLVESGGGLVQPGGSLRLSCAVSGFTFSSFGMHWVRQAPGKGLEWVAYISSGTTNIYYADSVKGRFTVSRDNAKNSLYLQMNSLRAEDTAVYYCVRSGYYGQSLDYWGQGTLVTVSS VL: DIVMTQSPDSLAVSLGERVTMNCKSSQSLFSSGNQRNYLTWYQQKPGQPPKLLIYWASTRESGVPDRFSGSGSGTDFTLTISSVQAEDVAVYYCQNVYIYPLTFGQGTKLEIK
